Data taken from IntAct's records for PubMed 26744420.

B1: PAX-interacting protein 1 (Mus musculus), Q6NZQ4 (parent)
chain: MSEPAPEVPEELFREVKYYAVGDIDPQVIQLLKAGKAKEVSYNALASHIISEDGDNPEVGEAREVFDLPVVKPSWVTLSVQCGALLPVNGFSPESCQIFFGLTACLSQVSSEDRSALWALVTFHGGSCQLNLNKKCTHLIVPEPKGEKYERAVKRTSIKIVTPDWVLDCVSEKRRKDEAFYHPRLIIYEEEEEEEEEGDNEEQDSQNEGSTEKSSVASSAVASPAEQPCSPKPRAEVSKGELMFDDSSDSSPEKQERSLNWAPAEAPPLNTAQRRLPQGKGPGLINLCANVPPVPGDILPPDMRGNLMAPGQNLQNSERSEILGTWSPAVRTLRNITNNADIQQINRPSNVAHILQSLSAPTKSLEQQVARGQQGHPNASAVLFGQAKGAPETHVLQQHHPPQQPQQQHPALHLQPQIMQLQQQQQQQQQQQQQPQPYPQPPSHQFPQQVHQHQFSQQQLQFPQQPLHPQQQLHRPQQQLQPFQQQHALQQQLHQLQQQQLQHHQLAQLQQQQQQQHNLLQQQQQQQQLQRLQQQQQMQNQAAHLSQASQALQHQVLPQQPLQLSLQPPPQQQQQQQLFGHDPAVEIPEESFLLGCVFAIADYPEQMSDKQLLATWKRIIQAHGGTVDPTFTSRCTHLLCASQVSSMYTQALRERKRCVTAHWLNTVLKKKKLMPPHRALHFPVAFPPGGKPCSQHIISVTGFVDNDRDDLKLMAYLAGAKYTGYLCRSNTVLICKEPSGLKYEKAKEWRIPCVNAQWLGDILLGNFEALRQVQYSRYTAFNMPDPFVPTPHLVLGLLDAWRTPVKVTAELLMGVRLPPKLKPNEVANIQPSSKRARIEDLPPPTKKLTPELTPLVLFTGFEPVQVQQYIKKLYILGGEVAECTKKCTHLIASKVTRTVKFLTAISVVKHIVTPDWLEECFKRQTFIDEQNYILRDAEAEVLFSFSLEESLKRAHVSPLFKTKYFYITPGICPSLATMKAIVECAGGKVLAKQPSFRKLMEHKQNKSLSEIILISCENDLHLCREYFARGIDVHNAEFVLTGVLTQTLDYESYKFN

Variants of: B1
Conditions: with pgr1a_mouse Pagr1a

Variant | effect of a mutation on the interaction
W165R | disrupting interaction
